Measurements from paper PMC4826039.

Molecular target: bovine brain tubulin (alpha-beta heterodimer), polymerized into taxol-stabilized microtubules (bovine) (UniProt Q6B856)
Assay: negative stain electron microscopy

| percent of microtubules with rings [%] | Substance |
| --- | --- |
| < 10 | KLP10A MD K350A (from UniProt Q960Z0 279-615) (domain or fragment) |
| < 10 | KLP10A MD K399A (from UniProt Q960Z0 279-615) (domain or fragment) |
